Data: patent publication US12338483

How the values were obtained:
[1] = system: MMP substrate (Example 3)
[2] = system: GzmB/MMP AND-gate protease activity sensor
[3] = system: MMP substrate of the biocomparator peptide cage (Example 4)
[4] = system: T1, GzmB/Thrb AND-gate protease activity sensor
T1 sequence: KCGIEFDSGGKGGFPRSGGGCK

[5] = system: GzmB substrate (individual protease substrate labeled with a fluorescent quencher and dye, nanoparticle-conjugated)
[6] = system: Thrb substrate (individual protease substrate labeled with a fluorescent quencher and dye, nanoparticle-conjugated)

MMP1, sequence (P03956 100-469): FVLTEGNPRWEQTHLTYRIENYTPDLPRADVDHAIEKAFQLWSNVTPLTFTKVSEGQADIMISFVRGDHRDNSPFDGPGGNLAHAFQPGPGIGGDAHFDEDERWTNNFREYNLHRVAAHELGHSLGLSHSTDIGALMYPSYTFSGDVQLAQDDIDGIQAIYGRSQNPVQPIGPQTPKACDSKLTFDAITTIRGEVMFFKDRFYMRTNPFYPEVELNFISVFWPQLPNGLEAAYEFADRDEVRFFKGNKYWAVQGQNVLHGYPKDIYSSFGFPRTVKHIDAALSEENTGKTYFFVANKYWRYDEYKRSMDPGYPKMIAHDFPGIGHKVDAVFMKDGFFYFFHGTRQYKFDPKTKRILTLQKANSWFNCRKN

## MMP1
[1]
  change in fluorescence in a cleavage assay (kinetic trace): The substrate was cleaved with high activity by MMP1, MMP8, and MMP13

## MMP8
[2]
  fluorescent signal in a cleavage assay (AND-gate sensor with GzmB and a second protease): The sensor produced low signals with the viral proteases compared to MMP8
[1]
  change in fluorescence in a cleavage assay (kinetic trace): The substrate was cleaved with high activity by MMP1, MMP8, and MMP13

## MMP9
[3]
  fluorescent cleavage assay: Results also confirmed MMP9 can cleave the MMP substrate by cleavage assay

## MMP13
[1]
  change in fluorescence in a cleavage assay (kinetic trace): The substrate was cleaved with high activity by MMP1, MMP8, and MMP13

## granzyme B (GzmB)
[4]
  change in fluorescence in a cleavage assay (AND-gate sensor): The reporter molecule emits a high fluorescent signal when both proteases are present together but not when either protease is present alone
[2]
  fluorescent signal in a cleavage assay (AND-gate sensor with each MMP, with and without GzmB): > 2 fold
[5]
  change in fluorescence in a cleavage assay (quenched substrate): the GzmB substrate was cleaved effectively by GzmB alone
[6]
  change in fluorescence in a cleavage assay (quenched substrate): the Thrb substrate was cleaved only by Thrb

## thrombin (Thrb)
[4]
  change in fluorescence in a cleavage assay (AND-gate sensor): The reporter molecule emits a high fluorescent signal when both proteases are present together but not when either protease is present alone
[5]
  change in fluorescence in a cleavage assay (quenched substrate): the GzmB substrate was cleaved effectively by GzmB alone
[6]
  change in fluorescence in a cleavage assay (quenched substrate): the Thrb substrate was cleaved only by Thrb
